Test: soluble on expression in E. coli; label from the status in PepcDB or PDB records

Sequence | soluble on expression in E. coli
MGSEIDQNDTDSSTQEWYRLLVVEKSTTLSDFMTSKRTKMVSDFPEEREEAIEEIIEVISTFPMDFLQKDEVSLLLNYFINSIESSALTGGAVIRGVHHLILKSKNLPDNFEVSLIRVLFKEGNVQSWAQKERQLQYEILIWFLKYRLSFLKGLGPDFLATFMKSVSGERDPRCLVHMFSAFLEVSNNFTLGPFTEDMFETIACYFPVEFKPQKTDTITREYLAASCASCLVSSPSFAPFCFLFIDEKLNDDDCSDEEYEDVLNLLILAYNRFPAQKKNLSLIEPLIGGIRKIGLNPKNKGEMQKYVSQAFEAVIKLCTKSSETNSKALDGIVSSIVEDSEPFVLQAEMGLCKKALTLLRSAFKSLPDKNSRQIFNQVIAWILNLIQGDSVNAAGNRADIVQEGLEYLVEWIQLASEYKELSIETLAVFEQSIFESCSRAREFKPREAITAIYECASVYFESDCASDELISQCRSYIALALRTPIDTDSDFQSLLKLIRIYSSKNFDQVEIILADNETNSWNAMKVLPVLCAISCSQRWNLLKNKIVDELGSTISSSTEISYLICYVQMMEKCKKDPQLFHQQFEVFESVLYKTDCNEPVSVSYLMQSISLLLSEDDHQKFMNQTTTRYQSLEGSSLDNFNQKYRLAYLQNKNTNDLKTIANLKLPERTIRQLFFAICNREAENENNSEIPEQHHIAEIKAKLLRNAPNSLSAFEQFLTNISGSTESPFEYLLDFDSFDSNPDRCRYETASPLWRQRIFCQIVPIFKRKFEEPGSQKHVLVEMLPHLLTFAVPLDFQQLKKQFAMLLPVLIQTIGMEDVIPSHVTRTIPMFLTISEPLQPKDLGTVVKYLCSITRDNDSNMTNLEDALNGLNILARRQPPKSLHSEVPLVVTSINKILGHKKRLLRMMAADVKNNWEMVITK | not soluble
MAHHHHHHMHQHGKTSGTDGSGATVSQSSSGFMETPWRIFEYGVASEQGSRKTMEDQHAMVAESFPFFAVYDGHGGTQCAEFLRDNLHTFIFGQPEIETDPERATRAGIAEAENAFLTKCADEKIESGSTCAVALVVDDTLIAGNVGDSEIVLCRAGAPIVLSTKHSIQDNVSEGERVKACGGRIISNRVGHPKFNPQLLSLAITRAIGDAGFKLREFTDGKPSGVIADAETRSTRLTDDDKFLIIGCDGLWDVMSYEAAVQLCSRLASEGETPKAIAGSLCQEALRQGSTDNVTCIYINIRAKSSAPGCGQLGSGDPLHNM | soluble
MTRKPLTLTGSALAVLRALVERGPSTRPQLGQDLGLSRPTMSAAMAELMEAGLVEPIGSVQGGMGRRAVEYRVATHAGHVIAVDAGSTHIRLRLSTLDRRLLHASLHPLPNSQYSLTPQISSVVADAVAEALEKTEVDWGPLLAMVIAIPTRVVGPEGDTAATDQEVIFTNFTPPPQVDCTLVNNVNCAAVAEYHYGAARGHQTFAFLQVGVKIGLGLMLNGQILPGVNGAAGEIGHITFPFAPGLTPVPGEAERYIGTEAFMARVRADWPKGSGRPPADTYELLARAGEGDAAALRHVEGHAAEIGAVIAICVSVIDPGLVVLGGGYGASPLLRPKVEEVVRHLAFPAEITTSTLAAEATVLGAERLAVDRAVSVLLGLPA | not soluble
MSLSIPFDDSRGPYVLAMDIGSTASRGGLYDASGCPIKGTKQRESHEFTTGEGVSTIDADQVVSEITSVINGILNAADHHNIKDQIAAVALDSFASSLILVDGEGNALTPCITYADSRSAQYVEQLRAEIDEEAYHGRTGVCLHTSYHPSRLLWLKTEFEEEFNKAKYVMTIGEYVYFKLAGITGMATSIAAWSGILDAHTGELDLTILEHIGVDPALFGEIRNPDEPATDAKVVDKKWKHLEEIPWFHAIPDGWPSNIGPGAVDSKTVAVAAATSGAMRVILPSVPEQIPSGLWCYRVSRDQCIVGGALNDVGRAVTWLERTIIKPENLDEVLIREPLEGTPAVLPFFSGERSIGWAASAQATITNIQEQTGPEHLWRGVFEALALSYQRVWEHMGKAGAAPERVIASGRVSTDHPEFLAMLSDALDTPVIPLEMKRATLRGTALIVLEQLEPGGTRATPPFGTTHQPRFAHHYSKARELFDALYLKLVEGHHHHHH | soluble
TEEPDFTALCQKLKIPDHVRERAWLTWEKVSSVDGVLGGYIQKKKELWGICIFIAAVDLDEMSFTFTELQKNIEISVHKFFNLLKEIDTSTKVDNAMSRLLKKYDVLFALFSKLERTCELIYLTQPSSSISTEINSALVLKVSWITFLLAKGEVLQMEDDLVISFQLMLCVLDYFIKLSPPMLLKEPYKTAVIPINGSPRTPRRGQNRSARIAKQLENDTRIIEVLCKEHECNIDEVKNVYFKNFIPFMNSLGLVTSNGLPEVENLSKRYEEIYLKNKDLDARLFLDHDKTLQTDSIDSFETQR | soluble
MNKFIQSLPKVELHLHIEGTLEPELMLELAQRNSINIPFNSVEEIRDAYNFHNLQSFLDIYFQGADVLVHEQDFFDLTWAYLLRCQEDNVLHTEIFFDPQAHTERGILFDTVVNGIDRALNKGVSELGITSKLIMCFLRHLDEESAFKTLTQAQAHKDKIIGVGLDSTEIGNPANKFERVFKQAIEQGFLTVAHAGEEGPADNISEALSLLKITRIDHGVRCSEDASLVKQLVSERIPLTVCPLSNIKLKVFDRMEQHNIVTLLRQGVCVTINSDDPAYFGGYMTDNFVAVNNAHPMNKAEIAQFTFNAIEASFVSPSEQERLRQVTQKYIALHQE | not soluble
MGSDKIHHHHHHLNTLKTNAMEIFKQAVSTLNNPEVQGWKQQGGKVVGYFYSYIPEELITAAGLLPYKIRGIGSPGAAMADKYFTHNVCSLVRDTFELVLKGECDFLDGVINFNGCDHIRRISDNWQSLENNPCFHFLVLPKKVGKEQTERYREELVSLKASIEKRFNLVISEDKLKEAIRLHNKKRQLQRRLYELKKRENPPLSGAETLTVMIAGTVMPVARYNRLLAELIDELSISEGKKPNARLMLIGGELDNPELLKILESQGGMVVSDTMALGAREIACDVSETEDGLTALARYHMEDKPPCPRLYGTFQERFDFIRKTAREYQVDGVISLRFLLCDIWGFEQNDIAEILRTEKLPYLKLETEYALTNAGQLKTRVQAFVETLGEV | not soluble
MGKEIQLKPKANVSSYVHFLLNYRNKFKEQQPSTYVGFKEFSRKCSEKWRSISKHEKAKYEALAKLDKARYQEEMMNYVGKRKKRRKRDPQAPRRPPSSFLLFCQDHYAQLKRENPNWSVVQVAKATGKMWSTATDLEKHPYEQRVALLRAKYFEELELYRKQCNARKKYRMSARNRCRGKRVRQS | not soluble
MGSDKIHHHHHHMFLRFFSELRQAKVPVSLREYLLLMEALDKDVIDRSVEDFYFLSRASLVKDEKNLDKFDRVFSHVFKGLETVNDGLAADIPEEWLKALTEKFLTDEEKAQIEALGGFEKLMETLQERLREQKKRHEGGNKMIGSGGTSPFGNNGYNPEGVRIGQDKGRHGRAVKVWDKREYKNLDDSVELGTRNIKVALRRLRKFARTGAAEELDLNGTIKGTAEKGYLDIQLRPERRNAIKVLLFFDIGGSMDSHIKLCEELFSAARTEFKNLEFYYFHNCLYETVWKDNKRRQTEKIPTFDVLHKFPADYKVIFVGDATMSPYEITYPGGSVEHWNEEPGAIWMQRVTEIYQSCIWLNPTPERHWDYTQSIGVMRQIMADRMFPLTIEGLDKAMRELVRG | not soluble
SNILEKVVLKVLEDQQNIRLIRELLQTLYTSLCTLVQRVGKSVLVGNINMWVYRMETILHWQQQLNNIQITRPAFKGLTFTDLPLCLQLNIMQRLSDGRDLVSLGQAAPDLHVLSEDRLLWKKLCQYHFSERQIRKRLILSDKGQLDWKKMYFKLVRCYPRKEQYGDTLQLRKHCHILSWKGTDHPCTANNPESCSVSLSPQDFINLFKF | not soluble
QGMRAFLRVVETGNFTRASASLNMPKATVTNLIQGLEAHLRTKLLNRTTRRVLVTPDGALYYERAARLLSDLDELDGSLSTAQSLPKGRLRVETASAFANLVIIPALPEFHKKYPDIQIDLGVSDRTIDYLAENVDCAIRAGTLTDQSLIARRITEMKFVACASRDFLERHPVPQHPSDLEKNCYVVGYFLPKTGQQMPFHFRRGNEEIEVSGRYTMAANESTTYLAAARAGLGVIQAPLFMVREDLRNGTMVPVLPDWQVEPMPIYLVYPPNRHLSSRLRVFADWVVKVMAQSQNGEGS | soluble
VAADAYLVRRGQETKRGSGKGGASKGTPRGLSVIAGYPWFADWGRDAMIALSGLTLVTGRFEDARELLLTFLGQRRRGLIPNHFDESGQGAGYNTVARPLWLAVALERYARTTGDALFVRQALPMLRELLGSLVQGTDYGIGMDPADALLRAGEPGVQLTWMDVKIHDWVVTPRHGKPVEIQALWLAALGAELRLSQALGEPPRYAAVLERAHHSFKAQFWNHAADLTAAPTATLLGLGQLGSSLGGALSDALDGDFVLDDEPRRDTSSDALLTVGGRPGSGPVQSTTGASELGVGHRPGAAPAQPAVLADVIQPSGEQDLSVRPNAVIALALADTPVVDEQLDAVLAQTERELLTPVGLHTLSPHDPRYLGNYGGPQLLRDAAYHQGTVWPWPLASYVELLLSRGELNRARAALAGLTGHVWEAGIGHVSEVFSGDALTPGGCPFQAWSVAELLR | not soluble
MENKLKLVVVGDTYTGKTSLLVAYTKKQFLDNYTTTVFDNWAVSVHIDNKNYAVNLFDTAGQGNYEQIRCLSYPHANVFLVCFSMIDRKTLESCRSTWIPEIRKYAGDNVPIMLVGTKNDLVDDADSRNTVTEDYAKRVAHEIGCHKFYSCSALTHKGLKRVFDESFLAAVGVKLEEETPNPCCTIL | not soluble
MGSDKIHHHHHHMKLLSVVKIWDRGDHNAFTDLIRFDGKLYCAFREGSAHVSPDGALRILVSEDDGSSWKEAALIKLDEGDLRDARLLVWLGELYLFGARAIAGEPLQSLMWRSSDGCRWQAAEHCADTGYWLWRVIADNNEQSVSRAPALYGVAYRPGPDGDVRLYRAAPQGPLKGTDFIPLVAALNSEGYVNETGLEITDGIFTCLLRRDPVWDDRRNGLLGKAKAPFMDWQWLELDCRIGGPVVFRWCNRLLAIVRLYDEKVRTSLVEICETTGHVAEHLSLPSGGDTSYAGVVMEHSVKGDELKVSYYSSHEGKTAIYFAAIRLE | not soluble
MRLFLLLLSLLLISITTAFALDKPDGSNSIEDQTALFFGKDDRTAVTNSRQWPWEAIGQVETASGNPCTATLISPRLVLTAGHCVLTPPGNIDQAVALRFISDKGHWKYQITDLKTRVDAKLGQKLKADGDGWIVPPAAAAYDFALIQLTNAAPIPIKPLPLWEGTANELTKALKLVNRKVTQAGYPLDNLNTLYKHEDCLVTGWAQQGVLAHQCDTLPGDSGSPLLLKNGNSWSLIAIQSSAPAAKERYLADNRALSVTAINNRLKKLVNKIADTTQ | not soluble
MDVNPTLLFLKVPAQNAISTTFPYTGDPPYSHGTGTGYTMDTVNRTHQYSEKGRWTTNTETGAPQLNPIDGPLPEDNEPSG | soluble
MGDTFIRHIALLGFEKRFIPSQHYVYMFLVKWQDLSEKVVYRKFTEIYEFHKMLKEMFPIEAGEIHTENRVIPHLPAPRWFDGQRAAESRQGTLTEYFNGLMGLPVKISRCPHLLDFFKVRPDDLKLPTDSQAKKPETYLVPKDGKNNVADITGPIILQTYRAIADYEKSSGTEMTVATGDVVDVVEKSESGWWFCQMKTKRGWVPASYLEPLDSPDEAEDPDPNYAGEPYVTIKAYAAVEEDEMSLSEGEAIEVIHKLLDGWWVVRKGDITGYFPSMYLQKAGEEITQAQRQIRGRGAPPRRSTIRNAQSIHQRSRKRLSQDTYRRNSVRFLQQRRRPGRPGPLSTDGTKDNPSTPRVKPQPAVPPRPSSDLILHRCTESTKRKLTSAV | soluble

Reference: the DeepSol protein solubility set
